Numbering of substitutions follows the chain as printed.
T1: pol30-Msh6E6 (yeast, UniProt P15873 1-258, IDCL DIDADFLKIEEL to DYDKDLLKIIEL)
T1 construct: PCNA (POL30), yeast; source: yeast two-hybrid fusion (pAD-GAL4, strain YRG2)
T1 sequence: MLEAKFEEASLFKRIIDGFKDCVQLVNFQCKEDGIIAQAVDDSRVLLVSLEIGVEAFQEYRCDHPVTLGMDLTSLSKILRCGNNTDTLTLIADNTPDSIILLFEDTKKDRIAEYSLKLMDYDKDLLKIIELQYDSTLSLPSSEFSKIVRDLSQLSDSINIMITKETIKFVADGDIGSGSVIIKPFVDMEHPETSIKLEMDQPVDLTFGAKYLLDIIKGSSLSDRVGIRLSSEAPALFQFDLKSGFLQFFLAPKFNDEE

T2: pol30-Pol32E9 (yeast, UniProt P15873 1-258, IDCL DIDADFLKIEEL to DNDVDSLKIIEL)
T2 construct: PCNA (POL30), yeast; source: yeast two-hybrid fusion (pAD-GAL4, strain YRG2)
T2 sequence: T1 sequence with Y121N, K123V, L125S

T3: pol30-Msh6E2 (yeast, UniProt P15873 1-258, IDCL DIDADFLKIEEL to DYDRDMLKISEL)
T3 construct: PCNA (POL30), yeast; source: yeast two-hybrid fusion (pAD-GAL4, strain YRG2)
T3 sequence: T1 sequence with K123R, L125M, I129S

B1: Rad27 (natural protein, yeast, UniProt P26793 1-382, looked up)
chain: MGIKGLNAIISEHVPSAIRKSDIKSFFGRKVAIDASMSLYQFLIAVRQQDGGQLTNEAGETTSHLMGMFYRTLRMIDNGIKPCYVFDGKPPDLKSHELTKRSSRRVETEKKLAEATTELEKMKQERRLVKVSKEHNEEAQKLLGLMGIPYIIAPTEAEAQCAELAKKGKVYAAASEDMDTLCYRTPFLLRHLTFSEAKKEPIHEIDTELVLRGLDLTIEQFVDLCIMLGCDYCESIRGVGPVTALKLIKTHGSIEKIVEFIESGESNNTKWKIPEDWPYKQARMLFLDPEVIDGNEINLKWSPPKEKELIEYLCDDKKFSEERVKSGISRLKKGLKSGIQGRLDGFFQVVPKTKEQLAAAAKRAQENKKLNKNKNKVTKGRR
notes: Rad27 (endonuclease), yeast; also called pBD-Rad27; source: yeast two-hybrid fusion (pBD-GAL4, strain YRG2)

Experiments:
Ung1 PIP peptide = assay: SPR analysis of PCNA binding to PIP peptide; parameters: species or system yeast; conditions: PCNA immobilized, peptide 5-5,000 nM, ProteOn XPR36; read-out: Binding affinity for Ung1 PIP peptide (SPR)
pol30-Msh6E6 = target: T1, pol30-Msh6E6; assay: two-hybrid; pAD-GAL4-PCNA WT or mutant (called bait) and pBD-GAL4-partner (called prey) in strain YRG2; 10-fold serial dilutions spotted on SC-Leu-Trp-His plates, 30°C, 3 d; growth similar to WT PCNA is denoted 1; conditions: partners not purified
pol30-Pol32E9 = target: T2, pol30-Pol32E9; assay: as above; conditions: partners not purified
pol30-Msh6E2 = target: T3, pol30-Msh6E2; assay: as above; conditions: partners not purified

Molecule	Kd (Ung1 PIP peptide)	fold change in affinity relative to WT PCNA (Y2H) (pol30-Msh6E6)	fold change in affinity relative to WT PCNA (Y2H) (pol30-Pol32E9)	fold change in affinity relative to WT PCNA (Y2H) (pol30-Msh6E2)
POL30: wild-type yeast PCNA (POL30), IDCL sequence DIDADFLKIEEL	1200 nM	–	–	–
B1	–	1.3 fold	1.2 fold	1.3 fold

Reference: publication PMC2953525, “Subtle Alterations in PCNA-Partner Interactions Severely Impair DNA Replication and Repair” (PLoS Biology, 2010)
